{"source": "paper PMC6385295", "about": "(Nature Communications, 2019)", "binders": {"B1": {"name": "human monoclonal alloantibody 2E3, recombinant human IgG1 (antibody, V domains shown)", "VH": "EVQLVQSGAEVKKPGASVKVSCKASGYTFTGYYMHWVRQAPGQGLEWMGWINPNSGGTSYAQKFQGRVTMTRDTSTSTVYMELSSLRSEDTAVYYCARVTTVIAGPVFDYWGQGTLVTVSS", "VL": "QAVLTQPSSLSASPGASASLTCTLRSGINVGPYNIYWYQQKPGSPPQYLMRYKSDPDKHQGSAVPSRFSGSKDASANAGILLISGLQSEDEADYYCMIWHNNAWVFGGGTKLTVL", "notes": "variable region of the 2E3 heavy chain; constant region of human IgG1 from the heavy chain expression vector; full-length 2E3 light chain; IgG1; isolated from a human Fab phage library (Humanyx) by panning on HLA-A*11:01; also called 2E3-IgG1; source: HEK293, cotransfected, purified from culture supernatants (protein G Sepharose)"}, "B2": {"name": "mouse chimeric form of antibody 2E3 (mouse IgG1 constant region) (antibody, V domains shown)", "VH": "B1 VH", "VL": "B1 VL", "notes": "variable region of the 2E3 heavy chain; constant region of mouse IgG1 from the heavy chain expression vector; full-length 2E3 light chain; used for flow cytometry, detected with goat-anti-mouse IgG; also called mouse Fc chimeric antibody; source: HEK293, cotransfected, purified from culture supernatants (protein G Sepharose)"}}, "key": {"[1]": {"target": "T1, HLA-A*26:01 on One Lambda LABScreen Single Antigen beads (Homo sapiens, HLA-A*26:01, strain)", "T1 construct": "HLA-A*26:01 α chain, human; human beta-2-microglobulin; β2m and peptide are surmised for a class I HLA antigen; source: bought: One Lambda Inc. (LABScreen Single Antigen HLA Class I beads); copies: + +", "test": "One Lambda LABScreen Single Antigen bead assay (OL-SAB), HLA Class I; 2E3-IgG1 at 1 μg mL^−1, diluted 20× in negative control serum; HLA antigens on beads", "conditions": "both partners purified"}, "[2]": {"target": "T2, HLA-A*25:01 on One Lambda LABScreen Single Antigen beads (Homo sapiens, HLA-A*25:01, strain)", "T2 construct": "HLA-A*25:01 α chain, human; human beta-2-microglobulin; β2m and peptide are surmised for a class I HLA antigen; source: bought: One Lambda Inc. (LABScreen Single Antigen HLA Class I beads); copies: + +", "test": "One Lambda LABScreen Single Antigen bead assay (OL-SAB), HLA Class I; 2E3-IgG1 at 1 μg mL^−1, diluted 20× in negative control serum; HLA antigens on beads", "conditions": "both partners purified"}, "[3]": {"target": "T3, HLA-A*36:01 on One Lambda LABScreen Single Antigen beads (Homo sapiens, HLA-A*36:01, strain)", "T3 construct": "HLA-A*36:01 α chain, human; human beta-2-microglobulin; β2m and peptide are surmised for a class I HLA antigen; source: bought: One Lambda Inc. (LABScreen Single Antigen HLA Class I beads); copies: + +", "test": "One Lambda LABScreen Single Antigen bead assay (OL-SAB), HLA Class I; 2E3-IgG1 at 1 μg mL^−1, diluted 20× in negative control serum; HLA antigens on beads", "conditions": "both partners purified"}, "[4]": {"target": "T4, HLA-A*34:02 on One Lambda LABScreen Single Antigen beads (Homo sapiens, HLA-A*34:02, strain)", "T4 construct": "HLA-A*34:02 α chain, human; human beta-2-microglobulin; β2m and peptide are surmised for a class I HLA antigen; source: bought: One Lambda Inc. (LABScreen Single Antigen HLA Class I beads); copies: + +", "test": "One Lambda LABScreen Single Antigen bead assay (OL-SAB), HLA Class I; 2E3-IgG1 at 1 μg mL^−1, diluted 20× in negative control serum; HLA antigens on beads", "conditions": "both partners purified"}, "[5]": {"target": "T5, HLA-B*73:01 on One Lambda LABScreen Single Antigen beads (Homo sapiens, HLA-B*73:01, strain)", "T5 construct": "HLA-B*73:01 α chain, human; human beta-2-microglobulin; β2m and peptide are surmised for a class I HLA antigen; source: bought: One Lambda Inc. (LABScreen Single Antigen HLA Class I beads); copies: + +", "test": "One Lambda LABScreen Single Antigen bead assay (OL-SAB), HLA Class I; 2E3-IgG1 at 1 μg mL^−1, diluted 20× in negative control serum; HLA antigens on beads", "conditions": "both partners purified"}, "[6]": {"target": "T6, HLA-A*66:01 on One Lambda LABScreen Single Antigen beads (Homo sapiens, HLA-A*66:01, strain)", "T6 construct": "HLA-A*66:01 α chain, human; has Asp90; human beta-2-microglobulin; β2m and peptide are surmised for a class I HLA antigen; source: bought: One Lambda Inc. (LABScreen Single Antigen HLA Class I beads); copies: + +", "test": "One Lambda LABScreen Single Antigen bead assay (OL-SAB), HLA Class I; 2E3-IgG1 at 1 μg mL^−1, diluted 20× in negative control serum; HLA antigens on beads", "conditions": "both partners purified"}, "[7]": {"target": "T7, HLA-A*01:01 on One Lambda LABScreen Single Antigen beads (Homo sapiens, HLA-A*01:01, strain)", "T7 construct": "HLA-A*01:01 α chain, human; human beta-2-microglobulin; β2m and peptide are surmised for a class I HLA antigen; source: bought: One Lambda Inc. (LABScreen Single Antigen HLA Class I beads); copies: + +", "test": "One Lambda LABScreen Single Antigen bead assay (OL-SAB), HLA Class I; 2E3-IgG1 at 1 μg mL^−1, diluted 20× in negative control serum; HLA antigens on beads", "conditions": "both partners purified"}, "[8]": {"target": "T8, HLA-A*80:01 on One Lambda LABScreen Single Antigen beads (Homo sapiens, HLA-A*80:01, strain)", "T8 construct": "HLA-A*80:01 α chain, human; human beta-2-microglobulin; β2m and peptide are surmised for a class I HLA antigen; source: bought: One Lambda Inc. (LABScreen Single Antigen HLA Class I beads); copies: + +", "test": "One Lambda LABScreen Single Antigen bead assay (OL-SAB), HLA Class I; 2E3-IgG1 at 1 μg mL^−1, diluted 20× in negative control serum; HLA antigens on beads", "conditions": "both partners purified"}, "[9]": {"target": "T9, HLA-A*34:01 on One Lambda LABScreen Single Antigen beads (Homo sapiens, HLA-A*34:01, strain)", "T9 construct": "HLA-A*34:01 α chain, human; human beta-2-microglobulin; β2m and peptide are surmised for a class I HLA antigen; source: bought: One Lambda Inc. (LABScreen Single Antigen HLA Class I beads); copies: + +", "test": "One Lambda LABScreen Single Antigen bead assay (OL-SAB), HLA Class I; 2E3-IgG1 at 1 μg mL^−1, diluted 20× in negative control serum; HLA antigens on beads", "conditions": "both partners purified"}, "[10]": {"target": "T10, HLA-A*11:01 on One Lambda LABScreen Single Antigen beads (Homo sapiens, HLA-A*11:01, strain)", "T10 construct": "HLA-A*11:01 α chain, human; human beta-2-microglobulin; β2m and peptide are surmised for a class I HLA antigen; source: bought: One Lambda Inc. (LABScreen Single Antigen HLA Class I beads); copies: + +", "test": "One Lambda LABScreen Single Antigen bead assay (OL-SAB), HLA Class I; 2E3-IgG1 at 1 μg mL^−1, diluted 20× in negative control serum; HLA antigens on beads", "conditions": "both partners purified"}, "[11]": {"target": "T11, HLA-A*43:01 on One Lambda LABScreen Single Antigen beads (Homo sapiens, HLA-A*43:01, strain)", "T11 construct": "HLA-A*43:01 α chain, human; human beta-2-microglobulin; β2m and peptide are surmised for a class I HLA antigen; source: bought: One Lambda Inc. (LABScreen Single Antigen HLA Class I beads); copies: + +", "test": "One Lambda LABScreen Single Antigen bead assay (OL-SAB), HLA Class I; 2E3-IgG1 at 1 μg mL^−1, diluted 20× in negative control serum; HLA antigens on beads", "conditions": "both partners purified"}, "[12]": {"target": "T12, refolded recombinant HLA-A*11:01 monomer (peptide-HLA complex) (Homo sapiens, HLA-A*11:01, strain, also: biotinylated in vitro by biotin ligase, peptide-HLA complex)", "T12 construct": "HLA-A*11:01 α chain, human, extracellular portion; human beta-2-microglobulin (β2m); the peptide of the crystallised complex is in PDB 6ID4; The methods describe one preparation (biotinylated) for all HLA monomers; copies: + +", "T12 chain 1": "not shown", "T12 chain 2": "not shown", "T12 chain 3": "AIFQSSMTK", "test": "ELISA; affinity determination: streptavidin-coated plate, increasing concentrations of biotinylated antigen (16 h) and of primary antibody (8 h), room temperature; goat-anti-human IgG-HRP", "conditions": "both partners purified"}, "[13]": {"target": "T12, refolded recombinant HLA-A*11:01 …", "test": "quartz crystal microbalance (QCM); Attana Cell A200, 25 °C, PBS running buffer; biotinylated refolded HLA-A*11:01 held on a streptavidin-saturated LNB-carboxyl chip; 2E3-IgG1 injected at 2.5 to 20 nM, single cycle kinetics", "conditions": "both partners purified"}, "[14]": {"target": "T13, HLA-A*11:01 on the surface of HLA-A*11:01-positive EBV-BCLs (Homo sapiens, HLA-A*11:01, strain)", "T13 construct": "HLA-A*11:01 α chain, endogenous on Epstein-Barr virus transformed B-cell lines; human beta-2-microglobulin, endogenous; The cells carry other HLA alleles too; also called A*11:01 homozygous EBV-BCLs; HLA-A*11:01 expressing target cell lines; source: endogenous, on HLA-typed EBV-BCLs; copies: + +", "test": "flow cytometry on cells; 0.5×10^6 EBV-BCLs with 5 μg mL^−1 mouse chimeric 2E3, 4 °C, 2 h, PBS with 3% FBS; AlexaFluor-488 goat-anti-mouse IgG", "conditions": "one partner purified"}}, "note": "Ends that are not written are not given here.", "data": [{"binder": "B1", "values": [{"measurement": "binding result", "setting": "[1]", "value": "binds"}, {"measurement": "binding result", "setting": "[2]", "value": "binds"}, {"measurement": "binding result", "setting": "[3]", "value": "binds"}, {"measurement": "binding result", "setting": "[4]", "value": "binds"}, {"measurement": "binding result", "setting": "[5]", "value": "binds"}, {"measurement": "binding result", "setting": "[6]", "value": "binds"}, {"measurement": "binding result", "setting": "[7]", "value": "binds"}, {"measurement": "binding result", "setting": "[8]", "value": "binds"}, {"measurement": "binding result", "setting": "[9]", "value": "binds"}, {"measurement": "binding result", "setting": "[10]", "value": "binds"}, {"measurement": "binding result", "setting": "[11]", "value": "binds"}, {"measurement": "Kd", "setting": "[12]", "value": 0.16, "unit": "nM"}, {"measurement": "Kd", "setting": "[13]", "value": 10.3, "unit": "nM"}, {"measurement": "koff", "setting": "[13]", "value": 0.00033, "unit": "s⁻¹"}, {"measurement": "kon", "setting": "[13]", "value": 104000, "unit": "M⁻¹ s⁻¹"}]}, {"binder": "B2", "values": [{"measurement": "binding result", "setting": "[14]", "value": "binds"}]}]}
